Source: the nanobody polyreactivity screen of Harvey et al. (2022)

Test: yeast display, Sf9 membrane polyspecificity reagent, FACS + sequencing; frameworks hold sequencing errors
In short: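 A nanobody's polyreactivity label depends on the gate it was sorted from. Yeast display cells were stained with 10% biotinylated, detergent-solubilized Sf9 membrane reagent for 1 hour at 4 °C, enriched on streptavidin microbeads and sorted by FACS. The low and high (top ~1%) gates were set on anti-HA fluorescence for expression and streptavidin fluorescence for reagent binding.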

QVQLVESGGGLVQAGGSLRLSCAASGRIFPTYTMGWYRQAPGKERELVAAISGRGGNTYYADSVKGRFTISRDNAKNTVYLQMNSLKPEDTAVYYCAARYPVRNGYWGQGTQVTVSS
polyreactivity (PSR sort gate): high polyreactivity

QVQLVESGGGLVQAGGSLRLSCAASGRIFPVYAMGWYRQAPGKEREFVAAIRGTGTSTYYADSVKGRFTISRDNAKNTVYLQMNSLKPEDTAVYYCAASAGYAYNYWGQGTQVTVSS
polyreactivity (PSR sort gate): low polyreactivity

QVQLVESGGGLVQAGGSLRLSCAASGRIFPVYAMGWYRQAPGKERELVAAIDYSDGSTYYADSVKGRFTISRDNAKNTVYLQMNSLKPEDTAVYYCAADYDAIYLWWGYDYWGQGTQVTVSS
polyreactivity (PSR sort gate): low polyreactivity

QVQLVESGGGLVQAGGSLRLSCAASGRIFPVYAMGWYRQAPGKERELVAAISKRDGSTSYADSVKGRFTISRDNAKNTVYLEMNSLKPEDTAVYYCAATYLLERPTSIHPRYDYWGQGTQVTVSS
polyreactivity (PSR sort gate): low polyreactivity

QVQLVESGGGLVQAGGSLRLSCAASGRIFPVYTMGWYRQAPGKERELVAAISGNGASTYYADSVKGRFTISRDNAKNTVYLQMNSLKPEDTAVYYCAAYFYYWGSTFVRYEYWGQGTQVTVSS
polyreactivity (PSR sort gate): high polyreactivity

QVQLVESGGGLVQAGGSLRLSCAASGRIFPWYTMGWYRQAPGKERELVAAITSGGNTDYADSVKGRFTISRDNAKNSVYLQMNSLKPEETAVYYCAAGGYPGTTYYGYDYWGQGTQVTVSS
polyreactivity (PSR sort gate): low polyreactivity

QVQLVESGGGLVQAGGSLRLSCAASGRIFPYMGWYRQAPGKERELVAAISSRGGNTYYADSVKGRFTISRDNAKNTVYLQMNSLKPEDTAVYYCNKVKYTWYDWGQGTQVTVSS
polyreactivity (PSR sort gate): high polyreactivity

QVQLVESGGGLVQAGGSLRLSCAASGRIFPYYAIGWYRQAPGKERELVASTNYADSVKGRFTISRDNAKNTVYLQMNSLKPEDTAVYYCNADSVYPPGSDYVVRDGNFDYWGQGTQVTVSS
polyreactivity (PSR sort gate): low polyreactivity

QVQLVESGGGLVQAGGSLRLSCAASGRIFPYYAKRWYRQAPGKERELVAAITTRGGSTYDADSVKGRFTISRDNAKNTVYLQMNSLKPEDTAVYYCAAVTFGRMEYCGQGTQVTVSS
polyreactivity (PSR sort gate): low polyreactivity

QVQLVESGGGLVQAGGSLRLSCAASGRIFPYYAMGWSRQAPGKERELVAAITSGGTTYYADSVKGRFTISRDNAKNTVYLQMNSLKPEDTAVYYCEYDYWGQGTQVTVSS
polyreactivity (PSR sort gate): low polyreactivity

QVQLVESGGGLVQAGGSLRLSCAASGRIFPYYAMGWYRPAPGKERELVATISTAGSTNYADSVKGRFTISRDNAKNTVYLQMKSLKPEDTAVYYCATRNTWYHRGYDYWGQGTQVTVSS
polyreactivity (PSR sort gate): low polyreactivity

QVQLVESGGGLVQAGGSLRLSCAASGRIFPYYAMGWYRQAPGKEREFVAAITSSGGTTYYADSVKGRFTISRDNAKNTVYLQMNSLKPEDTAVYYCFAVRLYALYAGRPYDYWGQGTQVTVSS
polyreactivity (PSR sort gate): low polyreactivity

QVQLVESGGGLVQAGGSLRLSCAASGRIFPYYAMGWYRQAPGKERELVAAISSGTSTYYADSVKGRFTISRDNANNTVYLKMNSLKQEDTAVYYSNGRHRRGRFTHDYDYWGQGTQVTVTS
polyreactivity (PSR sort gate): low polyreactivity

QVQLVESGGGLVQAGGSLRLSCAASGRIFPYYAMGWYRQAPGKERELVAAITRGGSRTYYADSVKGRFTISRDNAKNTVYLQMNSLKPEDTAVSYCARLDGFSASDHDYGGQGTQVTVSS
polyreactivity (PSR sort gate): high polyreactivity

QVQLVESGGGLVQAGGSLRLSCAASGRIFPYYDMGWYRQAPGKERELVAAITSSGSTFYADSVKGRFTISRDNAKNTVYLQMNSLKPEDTAVYYCNTRDIRVRPYDYWGQGTQVTVSS
polyreactivity (PSR sort gate): low polyreactivity

QVQLVESGGGLVQAGGSLRLSCAASGRIFQAYAMGWYRQAPGKERELVAAISRSGGGTYYADSVKGRFTISRDNAKNTVYLQMNSLKPEDTAVYYCNARGSTARGRGYWGQGTQVTVSS
polyreactivity (PSR sort gate): high polyreactivity

QVQLVESGGGLVQAGGSLRLSCAASGRIFQAYAMGWYRQAPGKERELVASISYRGGITYYADSVKGRFTISRDNAKNTVYLQMNSLKPEDTAVYYCAAGRKGSMYYWGQGTQVTVSS
polyreactivity (PSR sort gate): high polyreactivity

QVQLVESGGGLVQAGGSLRLSCAASGRIFQGYAMGWYRPAPGKERELGASIRTGGTTNYADSVKGRFTISRDNAKNTVYLQMNSLTPEDTAVYYCAKRYYGWYGNFDYWGQGTQVTVSA
polyreactivity (PSR sort gate): high polyreactivity

QVQLVESGGGLVQAGGSLRLSCAASGRIFQGYAMGWYRQAPGKERELVAAITRSGGSTYYADSVKGRFTISRDNAKNTVYLQMNSLKPEDTAVYYCAASHYGLLEYWGQGTQVTVSS
polyreactivity (PSR sort gate): low polyreactivity

QVQLVESGGGLVQAGGSLRLSCAASGRIFQGYVMGWYRQAQGQERELVAAITTGGSTYYADSVKGRFTISRDNAKNTVYLQMNSLKPEDTAVYYCNAVVYVSGYNPYIFGYWGQGTQVTVSS
polyreactivity (PSR sort gate): low polyreactivity

QVQLVESGGGLVQAGGSLRLSCAASGRIFQKYAMGWYRQAPGKESELVAAISSGDSTYADSVKGRFTISRDNAKNTVYLQMNSLIPEDTAVYYCAVDLYDPWWYSYIGEYEYWGQGTQVSVSS
polyreactivity (PSR sort gate): low polyreactivity

QVQLVESGGGLVQAGGSLRLSCAASGRIFQNYAMGWYRQAHGKERELVATISSGVSTYYADSVKGRFTISRDNAKNTVYLQMNSLKPEDTAVNYCAAYVPWFEMDYWGQGTQVTVSS
polyreactivity (PSR sort gate): low polyreactivity

QVQLVESGGGLVQAGGSLRLSCAASGRIFQQYAMGWYRQAPGKEREVVAAISRGGSTYYADSVKGRFTISRDNAKNTVYLQMNSLKPEDTAVYYCAVRSRRGLKYDYWGQGTQVTVSS
polyreactivity (PSR sort gate): high polyreactivity

QVQLVESGGGLVQAGGSLRLSCAASGRIFQRNAMGWYRQEPRKEREFVAAITKSGGGTYADSVKGRFTISRDNAKNTVYLQMNSLKPEDTAVYFCAADSRGEDYYYWGQGTQVTVSS
polyreactivity (PSR sort gate): high polyreactivity

QVQLVESGGGLVQAGGSLRLSCAASGRIFQRNVMGWYRQAPGKERELVASITGGGTTNYAHSVKGRFTISRDNAKNTVYLPRNSLKPEDTAVYYCNRRQNVGRVSQYEYWGQGTQVTVSS
polyreactivity (PSR sort gate): low polyreactivity

QVQLVESGGGLVQAGGSLRLSCAASGRIFQRYAMGWYRQSPGKERELVAGITSSGGSTYYADSVKGRFTISRDNAKNTVYLQMNSLKPEDTAVSYCNAGGELCYYGYRAGCTTRSYDYWGQGTLVTVSS
polyreactivity (PSR sort gate): low polyreactivity

QVQLVESGGGLVQAGGSLRLSCAASGRIFQSYAMGWYRQAPGKERELVAGISTRGGNTYYADSVKGRFTISRDNAKNTVYLQMNSLKPEDTAVYYCAKRDYGRFASDYWGQGTQVTVSS
polyreactivity (PSR sort gate): high polyreactivity

QVQLVESGGGLVQAGGSLRLSCAASGRIFQWYAMGWNRQAPGKERELVAAISWRGGSTYYADSVKGRFTISRDNAKNTVYLQMNSLKPEDTAVYYCNAVRRASSGYDYWGHGTQVTVSS
polyreactivity (PSR sort gate): high polyreactivity

QVQLVESGGGLVQAGGSLRLSCAASGRIFQYNAMGWYRQAPGKERELVAAIRRGGGSTYYADSVKGRFTISRDNAKNTVYLEMNSLKPEDTAVYYCAARRIRVSFYPEYDYWGQGTQVTVSS
polyreactivity (PSR sort gate): low polyreactivity

QVQLVESGGGLVQAGGSLRLSCAASGRIFQYNAMGWYRQAPGKERELVAAIRRGGGSTYYADSVKGRFTISRDNAKNTVYLQMNSLKPEDTAVYYCADRRQRVSFYPEYDYWGQGTQVTVSS
polyreactivity (PSR sort gate): low polyreactivity

QVQLVESGGGLVQAGGSLRLSCAASGRIFQYYAMGWYRQAPGKEREFVAAITGRGTRTYADSVKGRFTISRDNAKYTVYLQMNSLKPEDTAVYYCAKPFHYGRSYRSKMDYWGQGTQVTVSS
polyreactivity (PSR sort gate): high polyreactivity

QVQLVESGGGLVQAGGSLRLSCAASGRIFQYYAMGWYRQAPGKERELVAAITRSGGRTYYADSVKGRFTISRDNAKNTVFLQMNSLKPEDTAVYYCAARDWYYTMYYWGQGTQVTVSS
polyreactivity (PSR sort gate): high polyreactivity

QVQLVESGGGLVQAGGSLRLSCAASGRIFQYYVMGWYRQAPGKERELVAAIRSGGTTNYADSVKGRFTISRDNAKNTVYLQMNSLKPEDTAVYYCNARYRNTFYTRRYAYWGQGTQVTVSS
polyreactivity (PSR sort gate): high polyreactivity

QVQLVESGGGLVQAGGSLRLSCAASGRIFRANAMGWYRQAPGKERELVAGISYRGGSTYYADSVKGRFTISRDNAKNTVYLQMNSLKPEDTAVYYCAVRSSPELRYHYEYWGQGTQVTVSS
polyreactivity (PSR sort gate): low polyreactivity

QVQLVESGGGLVQAGGSLRLSCAASGRIFRANAMGWYRQAPGKERELVAGITRRGGSTNYADSVKGRFTISRDNAKNTVYLQMNSLKPEDTAVYYCNRDVSLSTSIRMDYWGQGTQVTVSS
polyreactivity (PSR sort gate): low polyreactivity

QVQLVESGGGLVQAGGSLRLSCAASGRIFRAYTMGWYRQAPGKARELVAAISRSTGSTNYADSVKGRFTISRDNAKNTVYLQMNSLKPEDTAVYFCNARSRWYLVGQQSTRLDYWGQGTQVTVSS
polyreactivity (PSR sort gate): high polyreactivity

QVQLVESGGGLVQAGGSLRLSCAASGRIFRFYAMGWYRQAPGKERELVAAITRNVGSTFYADSVKGRFTISRDNAKNTVYLQMNSLKPEDTAVYYCAAESDYYYRYTFDYWGQGTLVTVSS
polyreactivity (PSR sort gate): low polyreactivity

QVQLVESGGGLVQAGGSLRLSCAASGRIFRFYAMGWYRQAPGKERVLVAAITRNVGSTFYADSVKGRFTISRDNAKNTVYLQMNSLKPEDSAVFYCAAESDYYYRYTFDYWGQGTQVTVSS
polyreactivity (PSR sort gate): low polyreactivity

QVQLVESGGGLVQAGGSLRLSCAASGRIFRGNAMGWYRQAPGKERELVAAILTGVSTYYADSVKGRFTISRDNAKNTVYLQMNSLNPEDTAVYYCADERPSRRSVYEYWGQCTQVTVSS
polyreactivity (PSR sort gate): low polyreactivity

QVQLVESGGGLVQAGGSLRLSCAASGRIFRGNAMVWSRQAPGKERELVASISWRGASTDYADSVKGRFTISRDNAKNTVYLQMNRMKPEDTAVYYCAARVVWRISVYYVIDYNYWGQGTQVTVSS
polyreactivity (PSR sort gate): high polyreactivity

QVQLVESGGGLVQAGGSLRLSCAASGRIFRGNGMGWYRQAPGKERELVAAIRRSGGSTYYADSVKGRFTISRDNAKNTVYLQMNSLKPDDTAVFYCNADYTVVLSRVIYARGYWGQGTQVTVSS
polyreactivity (PSR sort gate): high polyreactivity

QVQLVESGGGLVQAGGSLRLSCAASGRIFRGNVMGWYRQAPGKERELVAAINSGASSNYADSVKGRFTISRDNAKNTVYLQMNSLKPEDTAVYYCAKRGPRSYFQPCYDYWGQGTQVTVSS
polyreactivity (PSR sort gate): high polyreactivity

QVQLVESGGGLVQAGGSLRLSCAASGRIFRGYAMGLYRQAPGKEREFVAAISWSGGDTYYADSVKGRFTISRDTAKNTVYLQMNSLKPEDTAVYYCATEYRLIPGPFVWPYDYWGQGTQVTVSS
polyreactivity (PSR sort gate): high polyreactivity
